Experimental data published in paper PMC2965120, “Ribonucleoprotein Particles Containing Non-Coding Y RNAs, Ro60, La and Nucleolin Are Not Required for Y RNA Function in DNA Replication”.

Tests used:
[1] = biological target: T1, La (human, UniProt P05455 1-408); test: EMSA; 10-fold molar excess competitor tRNA; >90% of RNA shifted at 1:1 protein:RNA; 10 mM Tris-HCl pH 7.5, 100 mM NaCl, 3 mM MgCl2, 1 mM DTT, 10-fold molar excess tRNA, 80 ng hY1 RNA, 15 min at 37 C; native 8% PAGE at 4 C; settings: protein: recombinant; label: 32P (alpha-32P UTP, internal)
T1 sequence: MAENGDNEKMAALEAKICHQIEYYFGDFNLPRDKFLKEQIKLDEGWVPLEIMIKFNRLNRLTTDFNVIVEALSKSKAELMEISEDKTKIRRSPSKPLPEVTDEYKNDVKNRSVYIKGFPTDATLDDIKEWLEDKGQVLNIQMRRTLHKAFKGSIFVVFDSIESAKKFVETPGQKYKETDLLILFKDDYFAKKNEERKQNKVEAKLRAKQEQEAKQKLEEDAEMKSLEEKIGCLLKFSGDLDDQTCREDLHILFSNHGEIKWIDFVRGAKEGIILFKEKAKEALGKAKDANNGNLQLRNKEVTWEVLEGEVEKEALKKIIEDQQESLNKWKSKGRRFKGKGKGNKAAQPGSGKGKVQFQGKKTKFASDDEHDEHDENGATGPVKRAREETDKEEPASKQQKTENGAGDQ

[2] = biological target: Ro60 (human, UniProt P10155 1-538); test: EMSA; 10-fold molar excess competitor tRNA; about 30-40% of RNA shifted at 4:1 protein:RNA; 10 mM Tris-HCl pH 7.5, 100 mM NaCl, 3 mM MgCl2, 1 mM DTT, 10-fold molar excess tRNA, 80 ng hY1 RNA, 15 min at 37 C; native 8% PAGE at 4 C; settings: protein: recombinant; tags: poly-His (pET28a); label: 32P (alpha-32P UTP, internal)
[3] = biological target: Ro60;La (human;human, UniProt P10155;P05455 1-538;1-408, |); test: EMSA; 10-fold molar excess competitor tRNA; RNA:Ro60:La 1:4:4; super-shift, ternary complex; 10 mM Tris-HCl pH 7.5, 100 mM NaCl, 3 mM MgCl2, 1 mM DTT, 10-fold molar excess tRNA, 80 ng hY1 RNA, 15 min at 37 C; native 8% PAGE at 4 C; settings: protein: recombinant;recombinant; copies: 1;1; label: 32P (alpha-32P UTP, internal)

Measured: binding result

Chain of Ro60 (P10155 whole entry): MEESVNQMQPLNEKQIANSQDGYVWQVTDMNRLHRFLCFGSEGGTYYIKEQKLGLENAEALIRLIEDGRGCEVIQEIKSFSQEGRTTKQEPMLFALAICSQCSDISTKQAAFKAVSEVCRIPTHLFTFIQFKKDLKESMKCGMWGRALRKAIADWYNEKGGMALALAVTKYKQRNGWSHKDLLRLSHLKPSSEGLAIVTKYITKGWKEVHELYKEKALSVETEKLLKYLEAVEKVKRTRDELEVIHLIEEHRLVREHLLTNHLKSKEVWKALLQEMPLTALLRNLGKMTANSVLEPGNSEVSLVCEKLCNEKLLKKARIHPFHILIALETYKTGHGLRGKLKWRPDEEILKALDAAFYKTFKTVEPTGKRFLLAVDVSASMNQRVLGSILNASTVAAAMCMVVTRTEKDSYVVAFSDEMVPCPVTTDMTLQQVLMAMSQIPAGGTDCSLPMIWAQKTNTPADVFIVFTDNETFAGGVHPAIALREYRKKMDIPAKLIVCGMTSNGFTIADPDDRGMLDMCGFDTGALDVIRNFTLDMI
Chain of Ro60;La (P10155 whole entry, one chain of several): as the sequence (P10155 whole entry) above

B1: hY1 RNA (structured_RNA)
RNA: GGCUGGUCCGAAGGUAGUGAGUUAUCUCAAUUGAUUGUUCACAGUCAGUUACAGAUCGAACUCCUUGUUCUACUCUUUCCCCCCUUCUCACUACUGCACUUGACUAGUCUUU
binds: all assays above
